Assay results as given in patent US20090291895A1 (published 2009).

B1: purified recombinant 6x-histidine tagged rhesus MIP-1alpha (ligand)
chain: ADTPTSCCFSYISRQIPQNFIADYFETNSQCSKPGVIFLTKRGRQVCADPSKEWVQKYVSDLELSAHHHHHH
notes: also called rhMIP-1α; rhMIP1α
B2: mouse MIP-1alpha (ligand)
chain: APYGADTPTACCFSYSRKIPRQFIVDYFETSSLCSQPGVIFLTKRNRQICADSKETWVQEYITDLELNA
B3: mouse MCP-1 (ligand)
chain: not shown

Experiments:
[1] = target: T1, purified recombinant MPV vCCI (monkeypox virus viral CC-chemokine inhibitor, product of MPV ORF-[cha (monkeypox virus, UniProt P0DTM9 17-246)); assay: native PAGE mobility shift (1:1 molar ratio); co-immunoprecipitation
[2] = target: T1, purified recombinant MPV vCCI …; assay: mobility shift assay

Binder	binding result [1]	binding result [2]
B1	binds	
B2		binds
B3		binds
